Drawing on patent publication US20190022241A1 (AbbVie / Abbott, published 2019), this text covers binding result and Kd for four molecules.

The target in one assay is T1, human SEZ6L ECD-His (human, UniProt Q9BYH1 29-955).
T1 construct: whole entry named
T1 sequence: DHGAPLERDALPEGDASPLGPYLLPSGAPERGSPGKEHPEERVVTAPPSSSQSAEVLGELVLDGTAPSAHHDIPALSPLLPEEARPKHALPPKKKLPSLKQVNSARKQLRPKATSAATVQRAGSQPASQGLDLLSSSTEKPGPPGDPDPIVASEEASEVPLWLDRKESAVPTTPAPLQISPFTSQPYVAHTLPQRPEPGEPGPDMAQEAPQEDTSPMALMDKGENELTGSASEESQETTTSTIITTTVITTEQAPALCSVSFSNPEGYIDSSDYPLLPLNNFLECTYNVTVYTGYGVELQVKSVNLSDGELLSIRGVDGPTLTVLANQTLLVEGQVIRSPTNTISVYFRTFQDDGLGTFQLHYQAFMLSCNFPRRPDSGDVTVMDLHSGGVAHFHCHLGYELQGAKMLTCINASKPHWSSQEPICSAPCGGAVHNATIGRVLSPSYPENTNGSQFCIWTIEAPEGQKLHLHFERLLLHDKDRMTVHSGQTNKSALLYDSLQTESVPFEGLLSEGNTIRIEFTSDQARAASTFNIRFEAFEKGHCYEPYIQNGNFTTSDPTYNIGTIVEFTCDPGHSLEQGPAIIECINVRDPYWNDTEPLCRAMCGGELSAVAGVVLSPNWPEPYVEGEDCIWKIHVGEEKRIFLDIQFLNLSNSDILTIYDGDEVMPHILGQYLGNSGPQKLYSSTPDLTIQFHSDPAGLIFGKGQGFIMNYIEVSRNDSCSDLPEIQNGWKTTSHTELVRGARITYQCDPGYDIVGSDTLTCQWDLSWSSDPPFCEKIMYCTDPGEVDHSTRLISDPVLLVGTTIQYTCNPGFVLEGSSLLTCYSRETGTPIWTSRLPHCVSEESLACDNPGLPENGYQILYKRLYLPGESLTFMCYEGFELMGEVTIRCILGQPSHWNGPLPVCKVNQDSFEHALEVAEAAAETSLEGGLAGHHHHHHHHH
The assay is described as follows: ELISA on plates coated with SEZ6L protein. For orientation: In an ELISA, binding on a coated surface is turned into a signal by an enzyme label.

In assay [1] the target is T2, mouse SEZ6 on Neuro2a cells (mouse, UniProt Q7TSK2 20-991).
T2 construct: endogenous on Neuro2a cells; also called murine SEZ6; mSEZ6
The assay is described as follows: flow cytometry on Neuro2a cells expressing mouse SEZ6.
Description: (§1) Briefly 1×10⁵ cells per well of Neuro2a, RIN-5mF, or yeast displaying cynomolgus SEZ6 cells were incubated for 30 minutes with 50 μL PBS (2% FCS) buffer with 5 μg/mL antibody. […] After incubating for 15 minutes cells were washed twice with the PBS buffer and re-suspended in the same with DAPI for flow cytometry analysis of Neuro2a and Rin-m5F or buffer without DAPI for flow cytometric analysis of yeast cells with cSEZ6.

The target in another assay is T3, rSEZ6-ECD-His (rat, UniProt Q7TSK2 20-922 (mouse entry)).
T3 construct: the whole entry is named; also called rat recombinant SEZ6-His; rat SEZ6 ECD
T3 chain: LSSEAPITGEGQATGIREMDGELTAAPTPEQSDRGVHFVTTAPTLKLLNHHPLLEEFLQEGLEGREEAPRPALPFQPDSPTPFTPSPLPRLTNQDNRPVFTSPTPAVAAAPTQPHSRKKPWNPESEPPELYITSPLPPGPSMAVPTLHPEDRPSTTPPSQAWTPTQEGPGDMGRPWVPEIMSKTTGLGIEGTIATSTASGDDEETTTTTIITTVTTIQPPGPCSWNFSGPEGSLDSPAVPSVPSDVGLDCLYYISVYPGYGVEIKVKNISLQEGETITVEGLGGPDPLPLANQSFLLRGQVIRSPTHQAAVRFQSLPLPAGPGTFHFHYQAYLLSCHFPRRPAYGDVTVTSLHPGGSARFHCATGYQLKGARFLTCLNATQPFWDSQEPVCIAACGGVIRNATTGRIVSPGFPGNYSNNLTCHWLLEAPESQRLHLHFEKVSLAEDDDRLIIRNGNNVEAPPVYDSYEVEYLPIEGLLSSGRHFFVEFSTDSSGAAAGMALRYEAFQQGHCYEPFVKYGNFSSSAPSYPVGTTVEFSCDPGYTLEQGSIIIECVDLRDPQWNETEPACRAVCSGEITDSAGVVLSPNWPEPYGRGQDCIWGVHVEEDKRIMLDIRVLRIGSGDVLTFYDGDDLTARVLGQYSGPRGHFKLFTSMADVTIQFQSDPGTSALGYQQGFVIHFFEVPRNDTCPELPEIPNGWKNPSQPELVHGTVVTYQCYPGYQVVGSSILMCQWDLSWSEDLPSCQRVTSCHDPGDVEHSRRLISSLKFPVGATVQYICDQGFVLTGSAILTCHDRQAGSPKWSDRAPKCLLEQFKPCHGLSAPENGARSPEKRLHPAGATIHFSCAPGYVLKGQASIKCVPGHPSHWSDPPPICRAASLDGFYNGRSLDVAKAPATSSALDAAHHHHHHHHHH
Briefly: bio-layer interferometry (ForteBio RED) or surface plasmon resonance (Biacore 2000) on rat SEZ6-His; the table does not say which; column Rat XR (Kd, nM).

For assay [2], the target named is T4, rat SEZ6 on RIN-m5F cells (rat, UniProt Q7TSK2 20-991 (mouse entry)).
T4 construct: endogenous on RIN-m5F cells; also called rSEZ6
T4 chain: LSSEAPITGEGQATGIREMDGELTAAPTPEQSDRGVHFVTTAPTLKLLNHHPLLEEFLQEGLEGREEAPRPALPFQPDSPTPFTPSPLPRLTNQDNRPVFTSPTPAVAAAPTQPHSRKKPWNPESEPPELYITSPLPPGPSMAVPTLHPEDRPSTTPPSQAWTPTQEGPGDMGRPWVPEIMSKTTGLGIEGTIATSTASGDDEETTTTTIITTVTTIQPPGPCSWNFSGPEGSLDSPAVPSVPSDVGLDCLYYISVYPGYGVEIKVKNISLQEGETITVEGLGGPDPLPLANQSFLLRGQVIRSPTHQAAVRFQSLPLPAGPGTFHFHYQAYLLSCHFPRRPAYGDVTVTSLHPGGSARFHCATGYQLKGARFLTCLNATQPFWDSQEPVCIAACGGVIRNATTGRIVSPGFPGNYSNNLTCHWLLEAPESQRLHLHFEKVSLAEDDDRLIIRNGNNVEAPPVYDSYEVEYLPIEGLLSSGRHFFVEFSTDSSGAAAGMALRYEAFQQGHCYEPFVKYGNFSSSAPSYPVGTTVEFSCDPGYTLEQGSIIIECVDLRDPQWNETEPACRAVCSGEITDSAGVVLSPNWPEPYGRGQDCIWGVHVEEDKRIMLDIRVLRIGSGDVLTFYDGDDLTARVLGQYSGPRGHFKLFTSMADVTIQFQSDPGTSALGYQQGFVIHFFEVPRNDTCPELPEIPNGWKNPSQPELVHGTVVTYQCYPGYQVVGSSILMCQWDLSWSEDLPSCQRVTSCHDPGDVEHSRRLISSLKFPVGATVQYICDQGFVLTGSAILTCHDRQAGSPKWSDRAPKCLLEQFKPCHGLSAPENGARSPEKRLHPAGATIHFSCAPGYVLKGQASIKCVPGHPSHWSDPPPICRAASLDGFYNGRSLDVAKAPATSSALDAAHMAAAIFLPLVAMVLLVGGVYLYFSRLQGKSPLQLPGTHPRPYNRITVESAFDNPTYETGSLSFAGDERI
Briefly: flow cytometry, RIN-m5F cells, 5 ug/mL antibody. Background: In flow cytometry, cells or beads pass a laser one at a time.
Description: as §1

In assay [3] the target is T5, human SEZ6L2 ECD-His (human, UniProt Q6UXD5 28-843).
T5 construct: whole entry named
Briefly: mark of Table 5 for antibodies that bind SEZ6L2.

Assay [4] has as its target T6, hSEZ6-ECD-His (human, UniProt Q53EL9 20-925).
T6 construct: the whole entry is named; also called recombinant SEZ6-His; human recombinant SEZ6-His
Briefly: bio-layer interferometry (ForteBio RED) or surface plasmon resonance (Biacore 2000) on human SEZ6-His; the table does not say which; column Hu Affinity (Kd, nM). A general note: BLI is a label-free optical method that tracks binding on a fibre tip over time.
Excerpt: (§2) Various methods were used to analyze the binding and immunochemical characteristics of selected SEZ6 modulators generated as set forth above.

In assay [5] the target is T6, hSEZ6-ECD-His. Briefly: SPR, Biacore 2000 (data not shown).
The target of assay [6] is T4, rat SEZ6 on RIN-m5F cells. Briefly: flow cytometry on RIN-m5F cells expressing rat SEZ6, verified by BLI or SPR on rat SEZ6-His.
Description: as §1
To verify the cross reactivity data above for rat SEZ6 and to determine the affinity and kinetic constants kₒₙ and koff of the selected effectors, either bio-layer interferometry analysis on a ForteBio RED (ForteBio, Inc.) or surface plasmon resonance on a Biacore 2000 (GE Healthcare) were conducted.
In assay [7] the target is T5, human SEZ6L2 ECD-His. Briefly: ELISA on plates coated with SEZ6L2 protein.
Description: (§3) To determine cross reactivity to family member proteins, SEZ6L and SEZ6L2, an ELISA-based assay was used. Plates were coated with SEZ6, SEZ6L, or SEZ6L2 proteins at 0.2 μg/mL in PBS overnight. After washing with PBS containing 0.05% (v/v) Tween 20 (PB ST), the wells were blocked with 2% (w/v) BSA in PBS (PB SA), 100 μL/well for 1 hour at room temperature. Antibody was then added at 1 μg/mL in 100 μL PBSA for 1 hour at room temperature. After washing with PBST, 100 μL/well HRP-labeled goat anti-mouse IgG diluted 1:2,000 in PBSA for 1 hour at room temperature. […] After developing, an equal volume of 2M H₂SO₄ was added to stop substrate development and analyzed by spectrophotometer at OD 450.
For assay [8], the target named is T7, extracellular domain of cynomolgus SEZ6 on yeast (cynomolgus, UniProt Q53EL9 23-925 (human entry)).
T7 construct: yeast display; the whole entry is named; also called cSEZ6; cynomolgus SEZ6 ECD
T7 chain: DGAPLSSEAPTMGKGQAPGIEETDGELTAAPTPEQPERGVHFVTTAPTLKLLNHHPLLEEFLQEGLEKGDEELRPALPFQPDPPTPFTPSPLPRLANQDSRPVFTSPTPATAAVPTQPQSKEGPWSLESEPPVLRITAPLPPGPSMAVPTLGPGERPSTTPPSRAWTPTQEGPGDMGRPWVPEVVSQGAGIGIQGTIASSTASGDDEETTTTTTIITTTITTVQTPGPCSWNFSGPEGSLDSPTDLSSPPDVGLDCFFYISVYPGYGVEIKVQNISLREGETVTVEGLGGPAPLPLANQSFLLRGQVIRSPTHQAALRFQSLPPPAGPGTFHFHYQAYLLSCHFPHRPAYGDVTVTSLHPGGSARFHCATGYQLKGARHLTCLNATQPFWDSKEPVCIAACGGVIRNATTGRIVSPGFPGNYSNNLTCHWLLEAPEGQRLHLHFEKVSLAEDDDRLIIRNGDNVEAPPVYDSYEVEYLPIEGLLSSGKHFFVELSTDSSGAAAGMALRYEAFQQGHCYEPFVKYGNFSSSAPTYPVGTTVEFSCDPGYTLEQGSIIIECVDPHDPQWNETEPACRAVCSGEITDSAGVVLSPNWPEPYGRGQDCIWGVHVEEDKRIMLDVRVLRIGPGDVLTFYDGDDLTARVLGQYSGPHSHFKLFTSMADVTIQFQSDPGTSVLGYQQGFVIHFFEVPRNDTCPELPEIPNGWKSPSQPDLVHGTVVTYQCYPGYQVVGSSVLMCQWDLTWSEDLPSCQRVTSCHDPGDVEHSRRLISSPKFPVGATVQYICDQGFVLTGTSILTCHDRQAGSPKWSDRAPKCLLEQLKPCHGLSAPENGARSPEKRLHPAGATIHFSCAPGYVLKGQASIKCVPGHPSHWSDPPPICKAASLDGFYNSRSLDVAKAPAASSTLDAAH
The assay is described as follows: flow cytometry, yeast displaying cynomolgus SEZ6 ECD, 5 ug/mL antibody.
Description: as §1

T5 sequence (Q6UXD5 other isoform, or with tags, fused parts or gaps): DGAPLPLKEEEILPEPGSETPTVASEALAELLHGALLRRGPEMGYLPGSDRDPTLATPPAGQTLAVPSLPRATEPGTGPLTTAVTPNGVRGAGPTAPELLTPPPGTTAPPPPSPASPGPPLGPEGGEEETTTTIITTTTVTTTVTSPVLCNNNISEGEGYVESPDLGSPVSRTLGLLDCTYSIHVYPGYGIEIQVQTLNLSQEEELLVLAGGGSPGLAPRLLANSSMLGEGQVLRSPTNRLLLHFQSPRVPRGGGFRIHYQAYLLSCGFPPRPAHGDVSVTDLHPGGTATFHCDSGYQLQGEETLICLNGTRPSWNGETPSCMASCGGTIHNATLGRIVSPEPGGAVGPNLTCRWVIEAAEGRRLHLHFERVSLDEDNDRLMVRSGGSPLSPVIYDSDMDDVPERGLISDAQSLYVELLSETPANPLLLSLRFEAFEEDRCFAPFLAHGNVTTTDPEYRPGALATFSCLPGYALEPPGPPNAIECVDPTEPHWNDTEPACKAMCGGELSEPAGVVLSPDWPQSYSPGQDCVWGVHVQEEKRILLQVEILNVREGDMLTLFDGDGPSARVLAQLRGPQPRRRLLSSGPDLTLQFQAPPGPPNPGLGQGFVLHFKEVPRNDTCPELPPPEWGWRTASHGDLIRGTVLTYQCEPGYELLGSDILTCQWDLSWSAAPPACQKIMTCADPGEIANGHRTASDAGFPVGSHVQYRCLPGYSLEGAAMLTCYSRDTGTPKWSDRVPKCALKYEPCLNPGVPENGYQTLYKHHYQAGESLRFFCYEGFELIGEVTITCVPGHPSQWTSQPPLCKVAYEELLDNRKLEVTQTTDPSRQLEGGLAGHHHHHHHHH
Description for human SEZ6L ECD-His: as §3
Excerpt for rSEZ6-ECD-His: as §2

B1: SC17.28 (antibody, V domains shown)
VH: QVHLPQSRPELVKPGASVKISCKASGYGFTRSYIHWVKQRPGQGLEWIGYISSGSGGTTYNQKFKGKASLTADNPSSTAYMHLSSLTSEDSAIYFCARGGVRYFDVWGAGTTVTVSS
VL: DILLTQSPAILSVSPGEGVSFSCRASQSIGTSIHWYQQRTNGSPRLLIKYASESISGIPSRFSGSGSGTDFTLRINSLESEDIADYYCQQSNSWPLTFGAGTKLELK
notes: murine mAb
As for B1, the binding result in the assay with human SEZ6L ECD-His is given as “no binding (tested: 1 µg/mL)”; in [1] it was “no binding (tested: 5 µg/mL)”; in assay [2] it was “binds”; with human SEZ6L2 ECD-His [3], “binds”. Moreover, the dissociation constant (Kd) with rSEZ6-ECD-His is 31 nM; in the assay with hSEZ6-ECD-His [4] it was 22.1 nM.

B2: hSC17.34 (antibody, human IgG1, V domains shown)
VH: QVQLVQSGAEVKKPGASVKVSCKASGYTFTDYNMDWVRQAPGQRLEWIGYIYPDNGGAGYNQKFKGRVTITVDTSASTAYMELSSLRSEDTAVYYCSRSITTAWFAYWGQGTLVTVSS
VL: DIQMTQSPSSLSASVGDRVTITCKASQDINSYLSWFQQKPGKAPKSLIYRANRLVDGVPSRFSGSGSGTDYTLTISSLQPEDFATYYCLQYDEFPPTFGQGTKLEIK
notes: humanized, human IgG1/kappa
B2: the binding result with hSEZ6-ECD-His [5] was “binds”.

B3: hSC17.46 (antibody, human IgG1, V domains shown)
VH: QVQLVQSGAEVKKPGASVKVSCKASGYTFTSYWINWVRQAPGQGLEWIGNIFPDTTTTNYNEKFKGRVTLTRDTSISTAYMELSRLRSDDTAVYYCAREYYDGTYDAMDYWGQGTLVTVSS
VL: AIQMTQSPSSLSASVGDRVTITCKASQSVNNDVAWYQQKPGKAPKLLIYYASNRYTGVPSRFSGSGSGTDFTLTISSLQPEDFATYFCQQDYSSPRTFGQGTKLEIK
notes: humanized, human IgG1/kappa
For the molecule B3, the binding result with hSEZ6-ECD-His [5] was “binds”.

B4: SC17.36 (antibody, V domains shown)
VH: EVQLQESGPSLVKPSQSQSLTCSVTGDSITSDYWNWIRKFPGKKVEYMGYINYSGSTYYNPSLKSRISITRDTSKNQYYLQLNSVTSEDTATYYCARTSYYNKFLPFAYWGQGTLVTVSA
VL: QIVLTQSPALMSASPGEKVTMTCSASSSVSYMYWYQQKPRSSPKPWIYLTSNLASGVPARFSGSGSGTSYSLTISSMEAEDAATYYCQQWSSNPPTFGGGTKLEIK
notes: murine mAb
For the molecule B4, the binding result is given as “no binding (tested: 5 µg/mL)” in [6]; “no binding (tested: 1 µg/mL)” with human SEZ6L2 ECD-His [7]; “no binding (tested: 1 µg/mL)” with human SEZ6L ECD-His; “no binding (tested: 5 µg/mL)” in assay [1]; “binds” in assay [8]. In the assay with hSEZ6-ECD-His [4], this molecule yielded a dissociation constant Kd of 6.3 nM.

The term Kd denotes the constant that tells how readily two partners part at equilibrium. Low values mean higher affinity, high ones lower affinity.
